{"source": "paper PMC12038006", "about": "(Nature Communications, 2025)", "binders": {"B1": {"name": "Rv1273c from Mycobacterium tuberculosis (natural protein)", "chain": "MLLALLRQHIRPYRRLVAMLMMLQLVSTLASLYLPTVNAAIVDDGVAKGDTATIVRLGAVMLGVTGLQVLCAIGAVYLGSRTGAGFGRDLRSAMFEHIITFSERETARFGAPTLLTRSTNDVRQILFLVQMTATVLVTAPIMCVGGIIMAIHQEAALTWLLLVSVPILAVANYWIISHMLPLFRRMQSLIDGINRVMRDQLSGVRVVRAFTREGYERDKFAQANTALSNAALSAGNWQALMLPVTTLTINASSVALIWFGGLRIDSGQMQVGSLIAFLSYFAQILMAVLMATMTLAVLPRASVCAERITEVLSTPAALGNPDNPKFPTDGVTGVVRLAGATFTYPGADCPVLQDISLTARPGTTTAIVGSTGSGKSTLVSLICRLYDVTAGAVLVDGIDVREYHTERLWSAIGLVPQRSYLFSGTVADNLRYGGGPDQVVTEQEMWEALRVAAADGFVQTDGLQTRVAQGGVNFSGGQRQRLAIARAVIRRPAIYVFDDAFSALDVHTDAKVHASLRQVSGDATIIVVTQRISNAAQADQVIVVDNGKIVGTGTHETLLADCPTYAEFAASQSLSATVGGVG", "notes": "also called subunit of Rv1273c/72c"}}, "target": "T1, Rv1272c from Mycobacterium tuberculosis (Mycobacterium tuberculosis (Mtb) H37Rv, UniProt P9WQJ3 1-631)", "T1 construct": "also called subunit of Rv1273c/72c; not shown: Flag, C-terminal, kept", "T1 sequence": "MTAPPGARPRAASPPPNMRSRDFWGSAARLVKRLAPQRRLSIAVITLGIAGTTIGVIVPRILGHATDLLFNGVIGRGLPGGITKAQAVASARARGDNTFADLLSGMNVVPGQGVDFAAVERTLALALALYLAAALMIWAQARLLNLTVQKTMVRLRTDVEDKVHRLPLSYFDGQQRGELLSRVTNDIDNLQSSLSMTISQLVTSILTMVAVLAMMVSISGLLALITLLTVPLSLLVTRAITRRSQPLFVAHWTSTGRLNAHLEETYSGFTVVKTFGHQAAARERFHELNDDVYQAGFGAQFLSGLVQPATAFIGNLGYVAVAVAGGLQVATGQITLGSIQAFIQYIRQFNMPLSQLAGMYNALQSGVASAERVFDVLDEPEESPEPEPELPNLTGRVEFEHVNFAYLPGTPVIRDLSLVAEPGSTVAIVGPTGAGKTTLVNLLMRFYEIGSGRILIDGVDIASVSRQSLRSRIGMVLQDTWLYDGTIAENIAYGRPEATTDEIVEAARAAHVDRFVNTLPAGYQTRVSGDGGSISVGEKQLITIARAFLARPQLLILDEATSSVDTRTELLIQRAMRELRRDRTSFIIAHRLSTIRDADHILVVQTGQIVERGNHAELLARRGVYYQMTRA", "assay": "SEC", "conditions": "both partners purified", "data": [{"binder": "B1", "values": [{"measurement": "stoichiometry N", "result": 1}]}]}
